Literature values in paper PMC2962622.

Molecular target: NIFK 44-residue phosphopeptide (Homo sapiens) (UniProt Q9BYG3)
UniProt Q9BYG3, sequence (Q9BYG3 2-293): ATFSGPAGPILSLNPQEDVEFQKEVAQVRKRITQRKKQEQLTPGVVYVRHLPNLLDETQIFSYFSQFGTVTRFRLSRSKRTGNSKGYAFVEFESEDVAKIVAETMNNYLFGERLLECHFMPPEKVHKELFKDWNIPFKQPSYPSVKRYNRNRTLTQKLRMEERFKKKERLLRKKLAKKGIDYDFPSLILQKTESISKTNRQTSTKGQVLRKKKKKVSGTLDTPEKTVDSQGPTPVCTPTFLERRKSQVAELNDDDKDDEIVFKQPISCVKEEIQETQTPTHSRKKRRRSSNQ

Kd: 77 nM
Substance: Ki67 FHA (from UniProt P46013)
